Results: US6686450B1, “Immunosuppressive agents that inhibit calcineurin function and uses of these agents” (Massachusetts Institute of Technology, priority 1998, dated 2004)

Legend:
Format in all cases: cell-based
[1] = molecular target: T1, interaction between Cabin 1-14 and full length calcineurin β2 (H160N) (Homo sapiens, UniProt P16298, H160N); assay: mammalian two-hybrid assay in Jurkat T cells (luciferase reporter); settings: Jurkat T cells stimulated with PMA and ionomycin
T1 construct: expressed in transfected cells; host or cells: Jurkat T cells
Text: (§1) A mammalian two-hybrid system was established in Jurkat T cells by fusing calcineurin with the Gal4 DNA binding domain and Cabin 1-14 with the VP16 activation domain (Hsu et al., Proc. Natl. Acid Sci. USA 91:3181-3185 (1994)). The fusion plasmids for mammalian two-hybrid assays were constructed as follows: The cDNAs of calcineurin Aβ2 wild type and H160N mutant were fused to the GAL4 DB in the pM vector (obtained from Clontech, Palo Alto, Calif.) (pMCNβ2 and PMCNβ2 (H160N), and the cDNA of Cabin 1-14 was fused to the VP16 AD in the pVP16 vector (pVPCabin 1-14). Jurkat T cells were transfected with 5 μg of pMCβ2 or pMCβ2 (H160N), 5 μg of pVPCabin 1-14, 1 μg of pCMV-βGal, and 2 μg of pg5Luc, a luciferase reporter plasmid containing GAL4 promoter, by electroporation (960 μF, 250V). After 48 hr, cells were stimulated with 40 nM PMA and 2.5 μM ionomycin, either alone or in combination, for 6 hr before luciferase activity was measured for each sample. The luciferase reporter gene assay reagents were obtained from Promega, Madison, Wis., and the assay was performed per manufacturer's instructions. […] Where appropriate, the transfection efficiency was measured by co-transfecting 2 μg of CMV-driven β-galactosidase expression vector and measuring enzymatic β-galactosidase activity (Ausubel et al., Current Protocols in Molecular Biology (John Wiley & Sons, Inc., New York, 1994)).

[2] = molecular target: T2, interaction between Cabin 1-14 and wild type calcineurin β2 (Homo sapiens, UniProt P16298); assay: as above; settings: Jurkat T cells stimulated with PMA and ionomycin
T2 construct: expressed in transfected cells; host or cells: Jurkat T cells
Text: as §1

[3] = test system: ARRE (Oct1/AP-1) binding sites derived from the IL-2 promoter; assay: ARRE (Oct1/AP-1) luciferase reporter gene assay in Jurkat T cells; settings: coexpression
[4] = test system: calcineurin phosphatase activity; assay: calcineurin-mediated dephosphorylation of ΔNF-AT1 in Jurkat T cells (Western blot)
Text: To determine if the inhibition of IL-2 promoter by Cabin1-14 is mediated through the inhibition of calcineurin phosphatase activity in vivo, the effect of Cabin 1-14 on the calcineurin-mediated dephosphorylation of the N-terminal fragment of NF-ATI (ΔNF-AT1), upon treatment with ionomycin and PMA, was examined. Jurkat T cells were transfected with expression vectors for Cabin 1-14 (pSGCabin 1-14) and for HA-epitope tagged, truncated NF-AT1 (1-460) fused to green fluorescent protein (pSG-ΔNF-AT1 (1-460) by electroporation as described above. After 48 hrs, cells were treated with PMA and ionomycin, either alone or in combination, for another 1 hr. Whole-cell lysates were prepared and subjected to 8% SDS-polyacrylamide gel electrophoresis, transferred to nitrocellulose membrane (Schleicher & Schuell, New Hampshire), probed with anti-HA epitope monoclonal antibody, and developed with ECL reagents (Amersham, Arlington Heights, Ill.).

[5] = test system: AP-1 binding sites derived from the IL-2 promoter; assay: AP-1 luciferase reporter gene assay in Jurkat T cells; settings: coexpression
[6] = test system: NF-AT binding sites derived from the IL-2 promoter; assay: NF-AT luciferase reporter gene assay in Jurkat T cells; settings: coexpression
[7] = molecular target: T3, wild type full-length calcineurin (Homo sapiens, UniProt P16298); assay: co-immunoprecipitation of Cabin 1-14 and calcineurin from Jurkat T cells; settings: PMA, ionomycin or both for 3 hrs
T3 construct: expressed in transfected cells; host or cells: Jurkat T cells
Text: In the mammalian two-hybrid system, the interaction between full-length calcineurin and Cabin 1-14 required ionomycin, which is consistent with the activation of full-length calcineurin by calcium and calmodulin. Unexpectedly, this interaction also required PMA (see FIG. 3C). Since PMA is known to activate PKC, the effect of a PKC-specific inhibitor, bisindolylmaleimide (Toullec et a., J. Biol. Chem. 266:15771-15781 (1991)), was examined on the PMA/ionomycin-stimulated interaction between Cabin 1-14 and calcineurin. […] In addition to the mammalian two-hybrid system, the interaction of Cabin 1-14 and the wild type full-length calcineurin was also confirmed by co-immunoprecipitation (See FIG. 3E). […] Jurkat T cells transfected with pSG-HACNAβ2 and pSG-Cabin 1-14 were stimulated with PMA, ionomycin or both for 3 hrs. The cells were lysed in a lysis buffer (20 mM TrisHCl, pH 7.4, 0.1M NaCl, 1% Triton X-100, 0.5% NP-40 and 0.5 mM PMSF). Cell lysates thus prepared were incubated with anti-Cabin 1 polyclonal antibodies and protein A/G agarose (Santa Cruz) for 2 hr., washed with lysis buffer and boiled in SDS sample buffer. The samples were subjected to 10% SDS-PAGE, transferred to nitrocellulose which was probed with anti-HA monoclonal antibodies and developed with ECL reagents (Amersham, Arlington Heights, Ill.). […]

[8] = test system: NF-κB binding sites derived from the IL-2 promoter; assay: NF-κB luciferase reporter gene assay in Jurkat T cells; settings: coexpression
IL-2 promoter = IL-2 promoter luciferase reporter gene assay in Jurkat T cells; settings: PMA and ionomycin

T3 sequence (P63098 2-170 partner limits assumed, other chains not shown): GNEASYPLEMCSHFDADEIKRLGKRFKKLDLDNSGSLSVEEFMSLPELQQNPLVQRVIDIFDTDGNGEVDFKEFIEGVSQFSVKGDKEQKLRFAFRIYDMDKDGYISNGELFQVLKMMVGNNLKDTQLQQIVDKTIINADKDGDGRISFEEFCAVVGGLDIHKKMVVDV

B1: Cabin 1-14: C-terminal fragment of Cabin 1 polypeptide, SEQ ID NO:5 (protein, listed as Homo sapiens)
chain: KFPPEITVTPPTPTLLSPKGSISEETKQKLKSAILSAQSAANVRKESLCQPALEVLETSSQESSLESETDEDDDYMDI
[1]
  interaction with full length calcineurin β2 (H160N) mutant: strong interaction
[2]
  interaction with wild type calcineurin relative to the mutant enzyme: several fold weaker
[3]
  effect on ARRE (Oct1/AP-1) reporter gene: inhibited
[3]; listed as Cabin1-14
  effect on ARRE (Oct1/AP-1) reporter gene: inhibits
[4]; ionomycin with PMA versus without
  inhibition of ΔNF-AT1 dephosphorylation in the presence of PMA versus in its absence: larger extent
[4]; overexpression, ionomycin in the presence or absence of PMA
  effect on dephosphorylation of ΔNF-AT1: inhibited
[5]
  effect on AP-1 reporter gene: inhibited
[5]; listed as Cabin1-14
  effect on AP-1 reporter gene: inhibits
[6]
  effect on NF-AT reporter gene: inhibited
[6]; listed as Cabin1-14
  effect on NF-AT reporter gene: inhibits
[7]
  coprecipitation with wild type calcineurin: coprecipitated only upon stimulation of Jurkat T cells with both PMA and ionomycin
[7]; listed as Cabin1-14
  coprecipitation with wild type calcineurin: dependent on both PKC and calcium stimulation
[8]
  effect on NF-κB reporter gene: inhibited
[8]; listed as Cabin1-14
  effect on NF-κB reporter gene: inhibits
IL-2 promoter
  effect on IL-2 reporter gene activation: potently inhibited
IL-2 promoter; listed as Cabin1-14
  effect on IL-2 reporter gene activation: inhibit
